Target: Recombinant Human HER2 ECD (human) (UniProt P04626)
Assay: SPR

Kd: 0.107 nM
Substance: ABY-025 (designed binder)
